These results are taken from PMC4784309, “Substrate specificity and function of acetylpolyamine amidohydrolases from Pseudomonas aeruginosa” (BMC Biochemistry, 2016).

Data set [1] concerns CC(=O)NCCCC[C@H](NC(=O)OC(C)(C)C)C(=O)Nc1ccc2c(C)cc(=O)oc2c1. The experiment in a line: purified protein. Conditions: pH 8, 30 °C, 20 mM Tris-HCl, 50 mM NaCl.
The test system of data set [2] is Cc1cc(=O)oc2cc(NC(=O)[C@H](CCCCNC(=O)C(F)(F)F)NC(=O)OC(C)(C)C)ccc12. Briefly: purified protein. Conditions: pH 8, 30 °C, 20 mM Tris-HCl, 50 mM NaCl.
Substrate in the data set “purified protein”: Cc1cc(=O)oc2cc(NC(=O)[C@H](CCCCNC(=O)C(F)(F)F)NC(=O)OC(C)(C)C)ccc12
The experiment in a line: purified protein. The following applies: pH 8, 30 °C, 20 mM Tris-HCl, 50 mM NaCl. The source holds these as a separate data set.

Substrate in data set [3]: CC(=O)NCCCCN
Briefly: diamine oxidase coupled colorimetric assay. Conditions: pH 7.4, 21 °C, 100 mM HEPES. Format: biochemical, Pseudomonas aeruginosa. From the text:
(§1) diamine oxidase coupled colorimetric assay on PA1409

Substrate in data set [4]: CC(=O)NCCCCCN
The experiment in a line: diamine oxidase coupled colorimetric assay. Format: biochemical, Pseudomonas aeruginosa. The following applies: pH 7.4, 21 °C, 100 mM HEPES.
Source text: as §1

Substrate in data set [5]: CC(=O)NCCCCN
Briefly: diamine oxidase coupled colorimetric assay. Format: biochemical, Pseudomonas aeruginosa. Conditions: pH 7.4, 21 °C, 100 mM HEPES. From the text: (§2) diamine oxidase coupled colorimetric assay on PA0321
The source holds these as a separate data set.

Substrate in data set [6]: CC(=O)NCCCCCN
Briefly: diamine oxidase coupled colorimetric assay. The following applies: pH 7.4, 21 °C, 100 mM HEPES. Format: biochemical, Pseudomonas aeruginosa.
Source text: as §2
The source holds these as a separate data set.

As to HDAH (Alcaligenaceae bacterium FB188), the Km (usually the substrate concentration at which the rate is half of its maximum) was 26 ± 4 µM in data set [1] and 7.2 ± 1.1 µM in data set [2]. Further, the Vmax (in general, the top rate of the reaction or transport when substrate is in excess) worked out at 0.0258 µmol/min/mg in data set [1] and 0.0138 µmol/min/mg in data set [2].
Consider PA0321 (Pseudomonas aeruginosa PAO1), for which the Km in data set [1] worked out at 22 ± 10 µM.
For the molecule PA1409 (Pseudomonas aeruginosa PAO1), the Michaelis constant (Km) in data set [1] came to 223 ± 12 µM.
With PA3774 (Pseudomonas aeruginosa PAO1), in data set [1], the Michaelis-Menten constant (Km) came out at 95 ± 7 µM.

B1: PA1409 (Pseudomonas aeruginosa PAO1) (protein)
chain: MLSVYSDDHRLHFGQSELVDGKLQPCFEMPSRADTVLARVKSQNLGEVIAPKDFGREPLLRLHDAAYLDFLQGAWARWTAEGHSGDLVSTTFPGRRLRRDGPIPTALMGELGYYSFDTEAPITAGTWQAIYSSAQVALTAQEHMRQGARSAFALCRPPGHHAGGDFMGGYCFLNNAAIATQAFLDQGARRVAILDVDYHHGNGTQDIFYRRDDVLFASIHGDPRVEYPYFLGYADERGEGAGEGCNHNYPLAHGSGWDLWSAALDDACVRIAGYAPDALVISLGVDTYKEDPISQFRLDSPDYLRMGERIARLGLPTLFIMEGGYAVEAIGINAVNVLQGYEGAAR
notes: recombinant, E. coli expressed, produced as described before [30]
In the case of B1, the Km is 84 ± 15 µM in the data set “purified protein”, 503 ± 60 µM in data set [3] and 465 ± 53 µM in data set [4].

B2: PA0321 (Pseudomonas aeruginosa PAO1) (protein)
chain: MLTIYSDDHRLHHGRHELIGGQFTPCFEKPSRADMVLDRVKAVGLGEVRAPRDFGLEPIRRVHSEGFVRFLQNAWQDWLATGRSHDMLPIAWPTRRLRQTEPDNIDGRLGYYSFDAGAPITAGTWQAITSSANVALSGQSELANGARSVFSLCRPPGHHAAADYMGGYCFFNNAAIAAQAFLDRGAGRVAILDVDYHHGNGTQDIFYDRADVLFTSIHGDPRFEYPYFLGYADEKGNGVGTGYNFNYPLAAGSDWATWSQALQAAIRQIQAYAADALIVSLGVDTFKEDPISQFRLDSPDYLRMGEAIGKLGLATLFVMEGGYAVEEIGINAVNVLQGFEGVHR
notes: as for B1
On to B2, for which the Km in data set [5] stood at 411 ± 34 µM; in data set [6] it was 284 ± 39 µM; in “purified protein” it was 11 ± 1 µM.

B3: PA3774 (Pseudomonas aeruginosa PAO1) (protein)
chain: MTRRTAFFFDELCLWHAAGPHALTLPVGGWVQPPAAAGHAESPETKRRLKSLLDVSGLTARLQLRSAPPASDEDLLRVHPAHYLERFKALSDAGGGSLGQDAPIGPGSYEIARLSAGLAIAALDAVLAGEADNAYSLSRPPGHHCLPDQAMGFCFFANIAVAIEAAKARHGVERVAVLDWDVHHGNGTQAIYYRRDDVLSISLHQDGCFPPGYSGAEDIGEDRGRGFNLNVPLLPGGGHDAYMQAMQRIVLPALERFRPQLIVVASGFDANAVDPLARMQLHSDSFRAMTAMVRDAAERHAGGRLVVVHEGGYSEAYVPFCGLAVIEELSGVRSAVRDPLRDFIELQQPNAAFRDFQRQRLEELAAQFGLCPAQPLQAAR
As for B3, the Km in the data set “purified protein” was 21 ± 2 µM.
